US20080188404

Legend:
[1] = biological target: hybrid protein DAF-MCP
[2] = biological target: hybrid protein DAF-CR1B
Sequence of hybrid protein DAF-CR1B (chain, as listed by the source): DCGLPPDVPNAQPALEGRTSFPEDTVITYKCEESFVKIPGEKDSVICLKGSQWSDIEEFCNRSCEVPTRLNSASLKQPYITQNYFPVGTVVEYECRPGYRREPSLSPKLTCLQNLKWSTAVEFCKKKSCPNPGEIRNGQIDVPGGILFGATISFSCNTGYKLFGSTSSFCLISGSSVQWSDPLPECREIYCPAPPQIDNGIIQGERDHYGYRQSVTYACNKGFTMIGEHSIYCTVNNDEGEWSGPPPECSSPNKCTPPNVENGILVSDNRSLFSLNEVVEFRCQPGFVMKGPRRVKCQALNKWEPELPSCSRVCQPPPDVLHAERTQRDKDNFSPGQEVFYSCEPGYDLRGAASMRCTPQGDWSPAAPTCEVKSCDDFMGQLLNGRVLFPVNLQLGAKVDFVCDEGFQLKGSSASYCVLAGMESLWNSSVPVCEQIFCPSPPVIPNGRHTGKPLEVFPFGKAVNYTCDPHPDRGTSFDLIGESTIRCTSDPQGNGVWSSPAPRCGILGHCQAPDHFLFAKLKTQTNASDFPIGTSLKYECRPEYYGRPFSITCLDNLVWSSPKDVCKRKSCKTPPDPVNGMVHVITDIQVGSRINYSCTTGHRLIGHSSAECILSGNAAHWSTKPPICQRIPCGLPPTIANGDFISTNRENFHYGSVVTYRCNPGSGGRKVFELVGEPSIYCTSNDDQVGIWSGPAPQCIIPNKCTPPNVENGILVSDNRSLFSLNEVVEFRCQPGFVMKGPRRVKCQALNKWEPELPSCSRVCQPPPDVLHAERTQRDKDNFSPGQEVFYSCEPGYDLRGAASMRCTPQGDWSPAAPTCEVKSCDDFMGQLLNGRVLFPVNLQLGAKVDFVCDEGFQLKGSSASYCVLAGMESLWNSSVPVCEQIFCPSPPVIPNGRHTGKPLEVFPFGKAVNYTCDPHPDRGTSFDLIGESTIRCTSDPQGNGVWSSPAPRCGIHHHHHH

Sequence of hybrid protein DAF-MCP (chain, as listed by the source): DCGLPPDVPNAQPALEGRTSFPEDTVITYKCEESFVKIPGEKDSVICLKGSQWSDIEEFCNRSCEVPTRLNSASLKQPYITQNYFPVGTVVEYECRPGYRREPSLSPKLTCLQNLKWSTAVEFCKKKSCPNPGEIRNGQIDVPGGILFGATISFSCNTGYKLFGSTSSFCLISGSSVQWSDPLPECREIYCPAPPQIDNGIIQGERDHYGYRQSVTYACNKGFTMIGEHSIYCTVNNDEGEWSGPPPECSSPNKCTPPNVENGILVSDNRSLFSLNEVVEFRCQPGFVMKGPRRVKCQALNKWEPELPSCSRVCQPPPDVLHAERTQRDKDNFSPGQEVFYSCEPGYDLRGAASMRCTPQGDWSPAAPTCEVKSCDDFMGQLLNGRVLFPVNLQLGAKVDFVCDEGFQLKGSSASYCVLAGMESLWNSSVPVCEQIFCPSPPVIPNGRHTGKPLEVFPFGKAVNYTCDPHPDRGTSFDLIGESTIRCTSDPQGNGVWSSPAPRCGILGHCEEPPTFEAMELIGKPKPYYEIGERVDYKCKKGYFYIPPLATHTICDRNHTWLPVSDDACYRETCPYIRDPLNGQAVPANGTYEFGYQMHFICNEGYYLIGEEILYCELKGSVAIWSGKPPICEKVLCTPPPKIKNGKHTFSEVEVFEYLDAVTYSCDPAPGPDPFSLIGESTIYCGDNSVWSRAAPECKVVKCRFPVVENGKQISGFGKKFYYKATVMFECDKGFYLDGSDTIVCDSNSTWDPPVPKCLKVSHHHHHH

B1: human factor I (protein)
chain: KVTYTSQEDLVEKKCLAKKYTHLSCDKVFCQPWQRCIEGTCVCKLPYQCPKNGTAVCATNRRSFPTYCQQKSLECLHPGTKFLNNGTCTAEGKFSVSLKHGNTDSEGIVEVKLVDQDKTMFICKSSWSMREANVACLDLGFQQGADTQRRFKLSDLSINSTECLHVHCRGLETSLAECTFTKRRTMGYQDFADVVCYTQKADSPMDDFFQCVNGKYISQMKACDGINDCGDQSDELCCKACQGKGFHCKSGVCIPSQYQCNGEVDCITGEDEVGCAGFASVTQEETEILTADMDAERRRIKSLLPKLSCGVKNRMHIRRKRIVGGKRAQLGDLPWQVAIKDASGITCGGIYIGGCWILTAAHCLRASKTHRYQIWTTVVDWIHPDLKRIVIEYVDRIIFHENYNAGTYQNDIALIEMKKDGNKKDCELPRSIPACVPWSPYLFQPNDTCIVSGWGREKDNERVFSLQWGEVKLISNCSKFYGNRFYEKEMECAGTYDGSIDACKGDSGGPLVCMDANNVTYVWGVVSWGENCGKPEFPGVYTKVANYFDWISYHVGRPFISQYNV
[1]
  cofactor assay: factor I cleavage of C3b, SDS-PAGE and Western blot with anti-human C3 polyclonal antibody: Supernatants with factor I and either DAF-MCP or DAF-CR1BB both exhibited 43 and 40 kDa bands corresponding to formation of iC3b and C3c, respectively
[2]
  cofactor assay: factor I cleavage of C3b, Western blot: DAF-CR1B acts as cofactor for factor I as shown by the appearance of a band at 29 kDa
